Measurements published in a protein production outcome set (Wang et al. 2014).

Assay: label from the status in PepcDB records

Sequence	protein production
MAENLRDSVVHRDIALLSFCAPVMLERLPSSFVKHIELWLSAAGLGIIFGVGYASGPSGPAFWRLIAVIAVGIGVVHGFIFWAVRRRQRQVRRQSIREIQQMLSDVLKNKLAAINMYLPEDADEEMVKQELDGVRASIEDIADEIENISEESIEGWKEHYSGAVERTTNL	failed
MRILFVGPPLYGLLYPVLSLAQAFRVNGHEVLIASGGKFAQKAAEAGLVVFDAAPGFDSEAGYRRQEALRKENNIGTKMGNFSFFSEEMTDPLVAFAGQWRPDLIVYPPLGVVGPLIAAKYDIPVVMQTVGFGHTPWHIKGVTKSLSNAYRRHGVSAPPRDLAWIDVTPPSMSILQNDGEPVISMQYVPYNGGAVWEEWWERTPDRKRLLVSLGTVKPMVDGLDLISWVMDSAGEVDAEIILHLPANARSDLRSLPPNVRLVDWLPMGVFLNGADGFIHHGGAGNTLTALHAGIPQIVFGQGADRPVNARAVVERGCGIIPGKSGLTSSMINTFLGNRALREASQEVAAEMAAQPCPTEVAKKLIAMLQHG	failed
MQAALEVTARYCGRELEQYGQCVAAKPESWQRDCHYLKMSIAQCTSSHPIIRQIRQACAQPFEAFEECLRQNEAAVGNCAEHMRRFLQCAEQVQPPRSPATVEAQPLPAS	failed
AEDNLGPLPENWEMAYTENGEVYFIDHNTKTTSWLDPRCLNKQQ	not failed
MPSSSNSAAFSLDEFAKALDKHDYHAEKGQTVHGKICQHANEGVYVDFGGKSPGFVPVQELGLRPHAEIEDSFPLDSAWDFLVTSEQNDEGQVRLSRRQLQIQQSWENLAELEESGKTLEMVVTGTNKGGVVGDVEGLRGFIPRSHLMHKDNMDALVGQVLKAHILEANQDNNKLVLTQRRIQQAESMGKIAAGNIYEGKVAKIQPYGVFVEIEGVTGLLHVSQVSGTRVDSLNTLFAFGQAISVYVQEIDEYKNRISLSTRILETYPGELVEKFDEMMADAPNRLPLVQSKQNLGDKQEQLEKSLEHHHHHH	failed
MEYSFYDFLKLIGSLGLFLYGMKIMSEGLQKVAGDRLRGILTAMTTNRVTGVLTGVLITALIQSSSATTVMVVSFVNAGLLTLAESISVIMGANIGTTVTAWIISIFGFKVDMAAFALPLLAIALPLIFSGKSNRKSIGEFIFGFSFLFMGLSYLKANAPDLNANPEMLAFVQNYTDMGFFSVLLFLFIGTILTMIVQASAATMAITLIMCANGWISLELGAALVLGENIGTTITANLAALTANSQAKRAALAHFVFNVFGVIWVLIIFHPFMVFVNWVVDTFFHPGSAEVAISYKLSAFHSIFNICNVCLLIWGVKLIERTVCAIIRPKEEDEEPRLRFITGGMLSTAELSILQARKEIHLFSERIHRMFGMVQDLLHTEKDDDFNKLFSRIEKYENISDNMELEIANYLNQVSEGRLSSESKLQIRAMLREVTEIESIGDSCYNLARTISRKRQTNQDFTEKQYEHIHFMMKLTNDALSQMIVVVEKPEHQSIDVNKSFNIENEINNYRNQLKNQNILDVNNKEYDYQMGVYYMDIIAECEKLGDYVVNVVEASSDVKEKKAS	failed
MKKITIISGHPNHESSISNKAILEYLESNVMESQLNIRKLEDLNTHFEFNVIQEQEALLQADTIIFQFPLFWYSFPALMKKWIDDVICYGFAFGGEKGAQLKDKQFIFSFTIGGQESAYGNEKEIALTIDELLKPLKQMLRYCQVKDINYVYSHNMLYIPDMYGSIEDINVRSECHAIKLLSMVN	failed
MECDRISTLPDHLVAKIVSYLGIKDSIKTSVLSKRWEFVWLKVVGLDLKNCDFPPNGIASQMVVNKYMEFNSGLHMQYFKVNFGGNTVCTNRFLEWIATAVDRGVQHLDAENKNPVIIKEFMPKKIYKSKTLVSLKLAIKIFLKARHFISVFIVLQGQSIVQFSSRCGTFS	not failed
MTKTSSGLKIMFRKIKLEVVRMDLSTIFASLLGLFLSLLTTGVYRYYSKPKIHKTVGVVILNPDKVDAKKIPPNLPEGLRRVTNSLEQELVLKLKKDQQKKAMLLIKISIIGIIISTIGLILGQ	failed
TKIKSVRTRVWNWTGPTVPPQGNFCTNASDALWIQGDAMASFRFHQWLTCEVETEDGTIGIGNAALAPNVVKQAIDEWYAPLVIGEDPFDYAYLWEKMYRRTHAWGRKGIGMTAISAIDIAIWDLMGKLVGKPVFKLLGGRTKEKIPVYYSKLYADSIPAMQAEAEEAQKHGYQGYKTRFGYGPKDGPAGMRENLKRVEALREVLGYDVDLMLECYMGWNLDYTKRMLPKLERFEPRWLEEPVIADDVAGYAELNAMGIVPISGGEHEFSVMGCAELINRKAVSVLQYDTNRVGGITAAQKINAIAEAAQIIVIPHAGQMHNYHLTMANMNCPISEYFPVFDVEVGNELFYYIFDGDPEAVDGYLQLDDDTPGLGITISDAHLKHFEITE	not failed
MDTVTKLSIIIPAWNEETGIARTLETLLALTAGRGDTEIIVSVSGNDRTKAIARTFPVVVCHSEKGRAVQMNAGAKLATGSILYFLHADTTPPPSFCDDIFSAIERGARAGCFRMTFDDPDWLMQLYGWFTQFPLPVCRGGDQSLFITKELFGQIGGFDERLQIMEDIEIIDRLQRHAGFHILDSTVTTSARKYHTNGTVRLQAIFGTIHLMYALGFSQKNIVAFYRDSIRLEHHHHHH	not failed
MDLLSLLDINNTLVNIPIGGGYAMSWVEGFGTIFGLLCIWFASQEKTINYVFGLLNVTLFAVIFFQIQLYGLLLLQLFFFCANIYGWYAWTKPNSSGETLEVRWLSQSKLLAISGGSIAAIALLTIYIDPFFFSLATIAVDGMNLFGAELAEPVLAPDAFPFWDSTMTVLSIVAQILMTRKYVENWMLWIVINIISIGIYATQGVFAMSVQYSILMFIAANGAREWARTAKENINNKQVEKAIA	failed
MKRKTLLMAALMGGCSLQGMAQQITPKDVAGDKEYNRVCREYELKGGDSMELLQAYLDKYPDSRHKNRVLSLIASAYFMEGKYKEAIALFRSCDLEALPDKERDDCAMRLATSYLKEDNLREAAVWFTLLKEVSPLYQDDAVYNLAYIDYVEKRYDKALKSFQSLQNDAVYAALVPYYIGEIYLVKGNYQQARTVAKAYLEQYPAKKDVPQMERIWGEACFGLNDYQAAIPPLERYRESVSHPQRKPLYELGMSYYYTGVYSKAAATLGEMASVHDALSQNAYLHMGLAYLNLKERNRARMAFEQAANFSFDPKVKEQALYNYALCIHETSYSPFAESVTVFERFLNEFPNSPYTERVNDYLIEVYMNTRSYEAALKSIAKIEHPGTRIMEAKQKILFRLGTQAFANARFQEALEFFNQSLAVGQYNQATKADAYFWRGESNYRLDRFPQAGNDYRLYLEFATSKNGQEYGLALYNLGYTYFKQKNYGNAGTWFTRFVDRGSINERTMQADAYNRIGDCNFYDRRFEQARQDYARAVEIDPSLGDYSLYQEAFVRGLQRDYNGKVQTLNRLISDYPESQYMDDALYEQGRAFVQMEDNANAIARFNILVKKFPESNVARRAANEIGLLYYQDDKYPEAIQAYKQVIAGYPGSEEARLAQRDLKSIYIDLNKVDEYANFASTIPGGANFDVNERDSLTYVAAERVYMRGEVAEARNSFTRYLQTFPEGAFSLNANYYIGLIDYNQKAYESAARHLDKVLEYPNNKYSEDAMLMGAEMAYTAKDYEKALHIYKQLKDKAASMERRRLAKTGMLRSAHMLGNEEEIIFAATDLLADTKLAPELSNEAHYYRAKAYLDAGKTDGAMEDLKVLAKDTRNVYGAEAKYKVAQIYFDGGQTDKAEQEVLNYIEVSTPHTYWLARSFVLLADVYMKLGRNLDAKQYLLSLKQNYQADDDIAGMIESRLEKLKTEN	failed
MSLQRFTNRTIVVAGAGRDIGRACAIRFAQEGANVVLTYNGAAEGAATAVAEIEKLGRSALAIKADLTNAAEVEAAISAAADKFGEIHGLVHVAGGLIARKTIAEMDEAFWHQVLDVNLTSLFLTAKTALPKMAKGGAIVTFSSQAGRDGGGPGALAYATSKGAVMTFTRGLAKEVGPKIRVNAVCPGMISTTFHDTFTKPEVRERVAGATSLKREGSSEDVAGLVAFLASDDAAYVTGACYDINGGVLFSEGHHHHHH	not failed
VSDRPAGRMPLTVHRNVGRWLSEILHASIRDTGVSSRIEFVRRTLHGWVREEYSETELPNAVYRNLYFPVLDAQPAHAGSGKIETISECDRLKNLVRNVTDTLVENYPQGLESEALLIALDGVKLELARIRKDIEMYGDPRKR	not failed
MSMVLSFLKKFVENHVMSRHTVAVTLFLTDMAVILGTAIGVGLLRHAFDGYLDPTHYLRLLPFLLLFPAASFAMGLYQSVPLPPPCELKRLSLATCCTYLAIAIFIFFTRGGELYSRLTFALAGLVSLVAVPVARHLVRQRMARHRGWAAPALLFGKPHHVQPLAHILLSSPSLGLEPVAIVSAEHSTCHDFGCLPAFDAETTRQYAAGHPEAYAIVVMESYDEADRAHLVEHLSRLFCSVILLRSSTMSTGNIWLSPIEIGGLPGLMVRQNLLDPRRLTVKRTLDLIATTLALPLILPVMAVIALCIRLETPGPALFTQRRIGRDGYHFDILKFRTMYNDADTRLAECLEQSPELDAEWRRDHKLRCDPRVTRVGAFLRKTSLDELPQLWNVLRGDMSLVGPRPIVDSEVQRYDAAFATYTRVRPGITGLWQVSGRNNLSYPERVQRDMYYISNWSVWFDIWIIARTIPVVLHRDGAY	failed
MKKKKYLKWWIAAVSAVFIVGAGIFVYTQYKAAQTSGDVATKDGTSASASDITWNGKTYSYNEHLSNFLFLGIDTKEKAETKTGQADAGQADALYLLSWNRLEGDITVISIPRDTMTQIETFGPGGKSLGKSKDHISLSYAYGDGGYESCELAENAVSELLYGLPIDGYCALNMDGLPVLTDSVGGVTVTVPNDSLAEVDPGYAKGAVVTLKGEDTEQFVRYRNTEISQSAIARMERQQEYIRAFGEALKKASADKALVTDLYKAIEPYMVTNMGKSRFVDLTESVSEGKKVNRWTIPGEGIQGKEYDEYVVDDDALYEKTVETFYVEKK	failed
MSKPLYVFDMDETLINADCAMIWNAFLVEKGIATQPNFIEEDQRLMALYAEGKMDMEDYLEFCMAPLADMPIAHVLMLVEECVEHHILPKQFEQSKTLIAQLDRDDIDMVIISASVTFLVEAVGRRLGIPVALGIDLVEKHGSYSAEIAGVPSYREGKVIRLKAWLDAQPESYSEVHFYTDSINDLPLCEYADYAYLVNPCPQLKARADKANWTLLRWN	failed
MKPALHTVTSAPALPAYVATGNECALFEHAWRHQLPVLLKGPTGCGKTRFVAHMAARLGLPLHTVACHDDLTAADLTGRYLLKGGDTVWTDGPLTRAVREGGICYLDEVVEARKDVTVVLHPLTDDRRILPLERTGEELAAPKSFMLVVSYNPGYQTLLKALKPSTRQRFVAIEFGFLAPEQEIAVVSAESGLPPDRVRPLVALAGRLRALRGHDLEEGVSTRLVVYCATLIAAGTPIADAVLAGMIEPLTDDSDVKAALLDVARAVIG	failed
MSMSTSTEVIAHHWAFAIFLIVAIGLCCLMLVGGWFLGGRARARSKNVPFESGIDSVGSARLRLSAKFYLVAMFFVIFDVEALYLFAWSTSIRESGWVGFVEAAIFIFVLLAGLVYLVRIGALDWTPARSRRERMNPETNSIANRQR	failed
RHLVKVPCRIGASHTTGRLILPTLLANLSAVSDRFDFQVTLANSAEILTAMSQHKLDFGLVEKPLVTDQLNRLPFGHDELVHAGDFASPLWLLREPNSGVRHYTNAFLKARNIQPAQVMVIHSNQII	failed
GRRFVMVPGIGGSGPEHWQSHWESLYPNTLRIEPNSWDEPDLADWFAALDRAVAAAPYPPVLVCHSLGCLLFAHWRAASSRAIAAAFLVAVPDPSGPAFPAQAKAFGALPATGFGERPVLAVASENDPYDPEASAIAWAVRQGAWPRRLGPRGHLNEASNIGAWPEGQELLADFLDKIGE	failed
KNTGSKHNFLNHGLPLNLAIKPYLALKGSVDFPAENGVQNTESTQEKREIGDEENSAKFPIGRRDFDMLRCMLGRVYRPCWQV	failed
MGHHHHHHSHMVDRLQSEPESIRKWREEQMERLEALDANSRKQEAEWKEKAIKELEEWYARQDEQLQKTKANNRVADEAFYKQPFADVIGYVTNINHPCYSLEQAAEEAFVNDIDESSPGTEWERVARLCDFNPKSS	not failed
